Here are results for 83 variants from the RNAGym collection of RNA variant scans (doi:10.1073/pnas.2313332121).

B1: TPR t1 (parent)
chain: GACCAAUCUGCCCUCAGAGCUCGAGAACAUCUUCGGAUGCAGAGGAGGCAGGCUUCGGUGGCGCGAUAGCGCCAACGUCCUCAACCUCCAAUGCAUCCCACCACAUGAUGAUGCCUGAAGAGCCUUGGUUUUUUG

The series covers variants of B1. In words: polymerase ribozyme fitness, log enrichment relative to wild type (log ratio); higher = more active; in vitro selection for triplet polymerase activity. A digest of the protocol: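 Input and output libraries were sequenced on Illumina after a single in vitro selection round, run in triplicate on PCR-built, transcribed mutant libraries of each subunit of a heterodimeric triplet polymerase ribozyme. Selection annealed libraries to a biotinylated primer, the partner subunit and triplets, incubated them frozen at −7 °C, then gel-excised extended constructs for streptavidin-bead capture and RT-PCR. Genotypes with ≥10 input reads and ≥1 read per output were kept. Fitness is the logarithm, taken in base 2, of genotype enrichment divided by wild-type enrichment, using inverse-variance-weighted replicate averages.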
As to A84C U96C, the “polymerase ribozyme fitness (log ratio)” value was -0.0472. Take A83U A91C: the “polymerase ribozyme fitness (log ratio)” value is -0.743. Turning to U87A G117C, the “polymerase ribozyme fitness (log ratio)” value is -3.81. With C88U U116C, the “polymerase ribozyme fitness (log ratio)” value is 0.189. For C88U U116A, the “polymerase ribozyme fitness (log ratio)” value is -3.45.

For the variant C88G U92A, the “polymerase ribozyme fitness (log ratio)” value is -4.09. For the variant C86A C104A G120C U130A, the “polymerase ribozyme fitness (log ratio)” value was -1.56. Consider A84U C101G U125G, for which the “polymerase ribozyme fitness (log ratio)” value is -2.42.

As for C88U C94U U129G, the “polymerase ribozyme fitness (log ratio)” value is -1.48.

As for C89A G110C, the “polymerase ribozyme fitness (log ratio)” value is -5.43.

For A83C U106A C123U, the “polymerase ribozyme fitness (log ratio)” value worked out at 1.46. Regarding U87A C124A, the “polymerase ribozyme fitness (log ratio)” value came to 1.83. Take C88U C97A U109G: the “polymerase ribozyme fitness (log ratio)” value was -6.35. Take U87G U96G C99U: the “polymerase ribozyme fitness (log ratio)” value was -2.81. For the variant U87G A91U, the “polymerase ribozyme fitness (log ratio)” value is -1.46. Consider C88A G113A, for which the “polymerase ribozyme fitness (log ratio)” value is -1.6. As to C89A C123U U129A, the “polymerase ribozyme fitness (log ratio)” value was -1.73. On to A84C C88G, for which the “polymerase ribozyme fitness (log ratio)” value was -0.958.

As for C88G G127C, the “polymerase ribozyme fitness (log ratio)” value was -2.07.

As to C86U U116C, the “polymerase ribozyme fitness (log ratio)” value is -0.139. Take U87G U106A A108C: the “polymerase ribozyme fitness (log ratio)” value is -2.16. With U87A C97U the figure was -0.196.

As to C86A G110A, the “polymerase ribozyme fitness (log ratio)” value is -1.86. As for C89A G122A U125G, the figure is -4.57; as for C88U G107A, -6.88. As for C88A U109C, the figure is -5.25. Regarding C88A U109A, the “polymerase ribozyme fitness (log ratio)” value was -5.8. Take C85U C94G C104U: the “polymerase ribozyme fitness (log ratio)” value was -1.9. As for A84G A95U C104A A121C, the “polymerase ribozyme fitness (log ratio)” value was -2.33. As for C85G C89U, the figure is -0.78. For A84G G117U, the “polymerase ribozyme fitness (log ratio)” value was -3.75. Consider C89G C98U, for which the “polymerase ribozyme fitness (log ratio)” value is -1.55. As for C88U C97A, the “polymerase ribozyme fitness (log ratio)” value was -4.84. Consider C86A C124G G128A, for which the “polymerase ribozyme fitness (log ratio)” value worked out at 0.914.

As to U87A G117U U129G, the “polymerase ribozyme fitness (log ratio)” value was -5.03. As for A84U C102A A103G U109G C114U, the figure is -3.45; as for A83U C85U C123G C124G, 1.28; as for A84U G93C, -1.39. Regarding A83G C86G A91C C94U U130A, the “polymerase ribozyme fitness (log ratio)” value was -3.59. Take U87C C104U: the “polymerase ribozyme fitness (log ratio)” value was 0.232.

Consider C85G U96G A105U, for which the “polymerase ribozyme fitness (log ratio)” value is -4.68.

C85A G107A U112G C114U G120U: the “polymerase ribozyme fitness (log ratio)” value was -7.47. On to C89G C97G, for which the “polymerase ribozyme fitness (log ratio)” value was -6.08. As for C85A U106A, the “polymerase ribozyme fitness (log ratio)” value was -2.53. In the case of C85A, the “polymerase ribozyme fitness (log ratio)” value is -1.96. With C85U, the “polymerase ribozyme fitness (log ratio)” value was -0.966. As for C85G, the figure is -1.74; as for U87C A90G U96A, 0.000334. As for A83C U96G U106A A121C, the “polymerase ribozyme fitness (log ratio)” value was 1.64. For C85G G110A, the “polymerase ribozyme fitness (log ratio)” value was -3.38.

Turning to U87G C115U, the “polymerase ribozyme fitness (log ratio)” value was -0.742. As to C88A C104U G127A, the “polymerase ribozyme fitness (log ratio)” value was -1.76.

C85U C114U: the “polymerase ribozyme fitness (log ratio)” value was -3.18. Regarding U87A U92A, the “polymerase ribozyme fitness (log ratio)” value was -2.55. Take C88G G113U U125C U132A: the “polymerase ribozyme fitness (log ratio)” value is -3.76. With A84G G117U G135U, the “polymerase ribozyme fitness (log ratio)” value was -4.65. For C85G C123U, the “polymerase ribozyme fitness (log ratio)” value was -0.244. Regarding U87C U129C, the “polymerase ribozyme fitness (log ratio)” value is -0.143. Regarding A84U C124U, the “polymerase ribozyme fitness (log ratio)” value came out at 0.806. For C89G C97A A100U C114A, the “polymerase ribozyme fitness (log ratio)” value is -7.31. On to C86U A95C, for which the “polymerase ribozyme fitness (log ratio)” value is -1.49. As for C89A U129C, the figure is -2.03; as for C88G U129A, -3.06.

On to A83C U109C, for which the “polymerase ribozyme fitness (log ratio)” value is -4.51. Take A84G G113U G135A: the “polymerase ribozyme fitness (log ratio)” value is -4.51.

Consider U87A U106G U125G, for which the “polymerase ribozyme fitness (log ratio)” value is -2.01. Regarding C86G C101U, the “polymerase ribozyme fitness (log ratio)” value is -0.616. As for A83C G117A, the figure is -1.33. Take C89A C94U U116A: the “polymerase ribozyme fitness (log ratio)” value is -5.8. As for C85G U112A, the figure is 0.357. In the case of C86G C94U G110A U129A, the “polymerase ribozyme fitness (log ratio)” value is -4.63. In the case of C86A, the “polymerase ribozyme fitness (log ratio)” value was -0.461. For C86U, the “polymerase ribozyme fitness (log ratio)” value is -0.178. Take C86G: the “polymerase ribozyme fitness (log ratio)” value is -0.82.

Turning to U87A A108C G110A, the “polymerase ribozyme fitness (log ratio)” value was -6.14. As for A84U U132C, the “polymerase ribozyme fitness (log ratio)” value was -0.244.

Consider A84C C85G U133C, for which the “polymerase ribozyme fitness (log ratio)” value was -0.825.

With C89A C124G, the “polymerase ribozyme fitness (log ratio)” value was -0.00331. For the variant C89A A100U, the “polymerase ribozyme fitness (log ratio)” value is -2.67. With C89A C101A the figure was -2.25; with C86A A100C, -1.66. Regarding U87C G113A, the “polymerase ribozyme fitness (log ratio)” value is -0.807. Consider C88A C123G, for which the “polymerase ribozyme fitness (log ratio)” value turned out to be 1.69.
